This is an account of results in patent publication US20210155941A1 (KITE PHARMA EU B V, published 2021).

The target of the test is HLA-A*02:01/HPV16 E7 11-19 (…) peptide-MHC complex on target cells (Human Papilloma virus serotype 16 …). The experiment in a line: cell-based or functional assay.

B1: A*02:01/HPV16 E711-19 human TCR (fully human constant regions) expressed on transduced T cells (TCR, V domains shown)
V domain 1: GQNIDQPTEMTATEGAIVQINCTYQTSGFNGLFWYQQHAGEAPTFLSYNVLDGLEEKGRFSSFLSRSKGYSYLLLKELQMKDSASYLCASVDGNNRLAFGKGNQVVVIP
V domain 2: DAGVTQSPTHLIKTRGQQVTLRCSPKSGHDTVSWYQQALGQGPQFIFQYYEEEERQRGNFPDRFSGHQFPNYSSELNVNALLLGDSALYLCASSLGWRGGRYNEQFFGPGTRLTVLE
Turning to B1, the “EC50 of intracellular IFN-γ (ICCS, flow cytometry), CD4+ T cells td with the TCR vector lacking the miRαβ cassette, peptide-loaded T2 target cells” value is roughly 52.4 nM; the “EC50 of intracellular IFN-γ (ICCS, flow cytometry), CD4+ T cells td with the pMP71-miRαβ A*02:01/HPV16 E711-19 fHC TCR vector, peptide-loaded T2 target cells” value is roughly 22.3 nM; the “EC50 of intracellular IFN-γ (ICCS, flow cytometry), CD8+ T cells td with the TCR vector lacking the miRαβ cassette, peptide-loaded T2 target cells” value was roughly 6.4 nM; the “EC50 of intracellular IFN-γ (ICCS, flow cytometry), CD8+ T cells td with the miRαβ TCR vector (SEQ ID NO: 15), peptide-loaded T2 target cells” value was roughly 3.4 nM.
